Target: Recombinant ligand-binding domain of McpC (amino acid residues 35-189) (Salmonella enterica serovar Typhimurium SL1344)
Test: AUC; sedimentation velocity analytical ultracentrifugation (SV-AUC), done commercially (KBI BioPharma); purified McpC ligand-binding domain; dimers present at >=4 mg/mL; monomer to dimer

Recombinant ligand-binding domain of McpC (amino acid residues 35-189) (domain or fragment)
stoichiometry N: 2
